T1: Non-sense coating peptide LLARDFEKNY-K-biotin
T1 construct: also called non-sense biotinylated peptide
T1 peptide: LLARDFEKNYK(Biotin)

B1: C4-aa^1355 monoclonal antibody (antibody, V domains shown)
VH: QVTLKESGPGILQPSQTLSLTCSFSGFSLTTYNIGVGWIRQSSGKGLEWLAHIWYNDIKYYNTALKSRLTISKDTSNNQVFLKIASVVTADTATYYCARLRPDSFDYWGQGTTLTVSS
VL: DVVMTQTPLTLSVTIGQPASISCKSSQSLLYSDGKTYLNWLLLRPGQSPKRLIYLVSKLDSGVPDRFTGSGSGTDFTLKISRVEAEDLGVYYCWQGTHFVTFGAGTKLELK
notes: It was SULFO-TAG labelled in the ECLIA; also called the monoclonal antibody
B2: Selection peptide MGNTGPTGAV (peptide)
peptide: MGNTGPTGAV
notes: also called target peptide

For assay [1], the target named is T2, Recombinant type IV collagen alpha2 chain, undigested (without protease) (UniProt P08572 184-1712).
T2 construct: Bought recombinant protein; also called non-digested type IV collagen; type IV collagen α2 chain
The assay is described as follows: competitive C4-aa^1355 ECLIA on the collagen sample. The protocol: (§1) During assay development, an optimal incubation buffer, time, temperature and concentrations of antibody and coating peptide were determined and the finalized competitive C4-aa¹³⁵⁵ ECLIA protocol was as follows: A MSD GOLD 96-well streptavidin pre-coated plate (Meso Scale Discovery, cat. no. L15SA-1) was incubated with 150 μl/well blocking buffer (10 mM phosphate-buffered saline (PBS) with bovine serum albumin (BSA) (5% w/v) and bronidox (0.36% v/v), 8 g/L NaCl, pH 7.4) for 60 minutes at 20° C. with shaking (300 rpm) in darkness. […] Finally, 150 μl/well of MSD GOLD Read Buffer (Meso Scale Discovery, cat. no. R92TG-2) was added and the plate was read immediately within 2 minutes in a Sector Imager 6000 (Meso Scale Discovery). SULFO-TAG enabled light emission when electricity was applied, and the light emission data was analyzed using the MSD Discovery Workbench 4.0 software. The analyte concentration was calculated using a 4-parametric curve fit model.
To confirm that the C4-aa¹³⁵⁵ antibody/assay recognized a protease generated type IV collagen neo-epitope, C4-aa¹³⁵⁵ was measured in non-digested, MMP-9 digested and GzB digested type IV collagen.

Assay [2] addresses T1, Non-sense coating peptide …. The assay is described as follows: ECLIA with the non-sense coating peptide on the streptavidin plate. Here is the method: The target sequence was used as the selection peptide ([…] (SEQ ID No. 1)). The immunogenic peptide ([…]-GGC-KLH) was generated by covalently linking the selection peptide to Keyhole Limpet Hemocyanin (KLH) carrier protein with addition of glycine and cysteine residues in between to ensure right linking. A biotinylated peptide ([…]-K-biotin) was used as a coating peptide. The specificity of the antibody was tested by including an elongated peptide ([…] (SEQ ID No. 7)), a truncated peptide ([…] (SEQ ID No. 3)), a non-sense selection peptide ([…] (SEQ ID No. 18)) and a non-sense coating peptide ([…]-K-biotin). […] Antibody specificity was calculated as percentage of signal inhibition of two-fold diluted peptides.
During assay development, an optimal incubation buffer, time, temperature and concentrations of antibody and coating peptide were determined and the finalized competitive C4-aa¹³⁵⁵ ECLIA protocol was as follows: A MSD GOLD 96-well streptavidin pre-coated plate (Meso Scale Discovery, cat. no. L15SA-1) was incubated with 150 μl/well blocking buffer (10 mM phosphate-buffered saline (PBS) with bovine serum albumin (BSA) (5% w/v) and bronidox (0.36% v/v), 8 g/L NaCl, pH 7.4) for 60 minutes at 20° C. with shaking (300 rpm) in darkness. […]

Assay [3] concerns the target B2. The assay is described as follows: preliminary competitive ELISA, biotinylated coating peptide on streptavidin plates. The protocol: Female Balb/C mice of 6-7 weeks of age were immunized subcutaneously with 200 μl emulsified antigen containing 100 μg immunogenic peptide ([…]-GGC-KLH) with Stimune Immunogenic adjuvant (Thermo fisher, cat. no. 7925000) repeatedly every second week until stable titer levels were obtained. The mouse with the highest antibody titer rested for four weeks and was then boosted intraperitoneally with immunogenic peptide. After three days, splenocytes were isolated and fused with murine SP2/0 myeloma cells to produce hybridoma cells as previously described (17). The hybridoma cells were cultured in 96-well microtiter plates and limited dilution was used to secure monoclonal growth. Supernatants from the monoclonal antibody producing hybridoma cells were screened for reactivity against the selection peptide and human serum samples in a preliminary competitive ELISA using biotinylated coating peptide on streptavidin-coated microtiter plates (Roche, cat. no. 11940279). The clone with the best reactivity towards the selection peptide was purified using protein-G-columns according to the manufacturer's instructions (GE Healthcare Life Sciences, cat. no. 17-0404-01).

Assay [4] addresses B1. The assay is described as follows: competitive C4-aa^1355 ECLIA (peptide in solution against the biotinylated coating peptide). Here is the method: The target sequence was used as the selection peptide ([…] (SEQ ID No. 1)). The immunogenic peptide ([…]-GGC-KLH) was generated by covalently linking the selection peptide to Keyhole Limpet Hemocyanin (KLH) carrier protein with addition of glycine and cysteine residues in between to ensure right linking. A biotinylated peptide ([…]-K-biotin) was used as a coating peptide. The specificity of the antibody was tested by including an elongated peptide ([…] (SEQ ID No. 7)), a truncated peptide ([…] (SEQ ID No. 3)), a non-sense selection peptide ([…] (SEQ ID No. 18)) and a non-sense coating peptide ([…]-K-biotin). To test for potential cross-reactivity to other ECM proteins with similar sequences, three peptides with one amino acid mismatch at either position one ([…] (SEQ ID No. 6)), three ([…] (SEQ ID No. 4)) or four ([…] (SEQ ID No. 5)) from the N-terminal were included in the specificity test. Antibody specificity was calculated as percentage of signal inhibition of two-fold diluted peptides.
During assay development, an optimal incubation buffer, time, temperature and concentrations of antibody and coating peptide were determined and the finalized competitive C4-aa¹³⁵⁵ ECLIA protocol was as follows: A MSD GOLD 96-well streptavidin pre-coated plate (Meso Scale Discovery, cat. no. L15SA-1) was incubated with 150 μl/well blocking buffer (10 mM phosphate-buffered saline (PBS) with bovine serum albumin (BSA) (5% w/v) and bronidox (0.36% v/v), 8 g/L NaCl, pH 7.4) for 60 minutes at 20° C. with shaking (300 rpm) in darkness. The plate was coated with 25 μl/well biotinylated coating peptide dissolved in assay buffer (50 mM PBS with BSA (1% w/v), Tween-20 (0.1% w/v) and bronidox (0.36% v/v), 8 g/L NaCl, pH 7.4) to a concentration at 2 ng/ml and incubated for 60 minutes at 20° C. with shaking (750 rpm) in darkness. Next, 25 μl/well selection peptide, assay controls or pre-diluted serum/plasma sample (1:2) were added followed by immediately addition of 25 μl/well of SULFO-TAG (MSD GOLD SULFO-TAG NHS-Ester Conjugation, Meso Scale Discovery, cat. no. R31AA-1) labelled monoclonal antibody diluted in assay buffer to a final concentration at 25 ng/ml and the plate incubated 20 hours at 4° C. with shaking (300 rpm) in darkness.

The target of assay [5] is B1. The assay is described as follows: competitive C4-aa^1355 ECLIA, peptide in solution against the biotinylated coating peptide. The protocol:
as §1, with “darkness. The plate was coated with 25 μl/well biotinylated coating peptide dissolved in assay buffer (50 mM PBS with BSA (1% w/v), Tween-20 (0.1% w/v) and bronidox (0.36% v/v), 8 g/L NaCl, pH 7.4) to a concentration at 2 ng/ml and incubated for 60 minutes at 20° C. with shaking (750 rpm) in darkness.” for “darkness.”
Target sequence in this assay (VL, as listed by the source): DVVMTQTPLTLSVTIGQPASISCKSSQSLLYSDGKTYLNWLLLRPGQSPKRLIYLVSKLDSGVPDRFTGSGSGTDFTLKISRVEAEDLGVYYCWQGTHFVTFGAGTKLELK

Ends that are not written are not given here. * marks the point of attachment. Biotin = O=C1N[C@H]2[C@H](CS[C@H]2CCCCC(=O)*)N1

Experimental findings from patent US20230030529A1 (NORDIC BIOSCIENCE A S, published 2023) are described below.

T2 sequence (P08572 184-1712): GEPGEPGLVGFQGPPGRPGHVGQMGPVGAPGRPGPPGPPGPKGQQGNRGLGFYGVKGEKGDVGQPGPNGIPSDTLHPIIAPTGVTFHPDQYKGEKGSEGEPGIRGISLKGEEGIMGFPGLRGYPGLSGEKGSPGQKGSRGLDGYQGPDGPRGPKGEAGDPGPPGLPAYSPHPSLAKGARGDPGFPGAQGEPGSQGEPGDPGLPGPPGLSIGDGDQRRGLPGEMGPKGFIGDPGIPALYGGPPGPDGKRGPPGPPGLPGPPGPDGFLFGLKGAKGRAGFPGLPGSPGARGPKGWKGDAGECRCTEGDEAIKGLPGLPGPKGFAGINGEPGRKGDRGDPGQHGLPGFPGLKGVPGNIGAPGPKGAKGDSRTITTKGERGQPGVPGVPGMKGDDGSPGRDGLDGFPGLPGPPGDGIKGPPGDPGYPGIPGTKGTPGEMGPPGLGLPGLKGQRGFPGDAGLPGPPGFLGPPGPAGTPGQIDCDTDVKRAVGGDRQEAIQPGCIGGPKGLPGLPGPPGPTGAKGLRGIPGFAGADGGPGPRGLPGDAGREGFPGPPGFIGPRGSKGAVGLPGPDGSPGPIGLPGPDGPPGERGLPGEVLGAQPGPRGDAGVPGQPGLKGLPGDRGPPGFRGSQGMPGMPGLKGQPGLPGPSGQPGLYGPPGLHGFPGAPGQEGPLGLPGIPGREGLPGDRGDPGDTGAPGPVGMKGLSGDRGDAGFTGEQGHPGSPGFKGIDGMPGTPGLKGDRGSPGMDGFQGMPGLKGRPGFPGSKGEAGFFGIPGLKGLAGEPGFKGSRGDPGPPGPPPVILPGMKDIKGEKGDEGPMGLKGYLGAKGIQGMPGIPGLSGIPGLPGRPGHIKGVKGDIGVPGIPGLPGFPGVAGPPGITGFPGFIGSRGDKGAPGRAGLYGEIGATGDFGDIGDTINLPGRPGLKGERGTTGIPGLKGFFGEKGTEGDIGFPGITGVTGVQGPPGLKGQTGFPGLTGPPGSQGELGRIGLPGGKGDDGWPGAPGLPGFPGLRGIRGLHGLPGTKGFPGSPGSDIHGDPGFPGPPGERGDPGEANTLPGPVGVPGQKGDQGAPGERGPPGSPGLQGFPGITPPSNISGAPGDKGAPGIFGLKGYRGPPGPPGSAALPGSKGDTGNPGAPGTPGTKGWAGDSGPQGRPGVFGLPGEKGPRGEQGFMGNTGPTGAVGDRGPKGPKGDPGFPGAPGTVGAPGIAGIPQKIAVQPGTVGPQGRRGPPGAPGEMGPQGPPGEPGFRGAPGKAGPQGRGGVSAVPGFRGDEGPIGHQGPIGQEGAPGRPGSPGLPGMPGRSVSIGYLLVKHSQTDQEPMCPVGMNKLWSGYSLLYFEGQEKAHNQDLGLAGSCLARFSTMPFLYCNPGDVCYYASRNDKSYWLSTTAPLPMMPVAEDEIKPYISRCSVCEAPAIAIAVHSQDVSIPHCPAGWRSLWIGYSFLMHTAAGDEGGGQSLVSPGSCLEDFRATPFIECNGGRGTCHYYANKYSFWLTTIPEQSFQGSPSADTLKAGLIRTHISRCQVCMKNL

Turning to B1, the binding result in assay [1] is recorded as “no binding”; in assay [2], “no binding”; in assay [3], “binds”.

For the molecule GNTGPTGAV [Truncated peptide GNTGPTGAV], the binding result in assay [4] was “no binding”.

FMGNTGPTGAV [Elongated peptide FMGNTGPTGAV]: the binding result in assay [4] is listed as “no binding”. For B2, the binding result in assay [5] was “binds”.

For QGNTGPTGAV (also called Deselection 3) [Deselection peptide 3 QGNTGPTGAV], the binding result in assay [4] was “no binding (tested: 0-30 ng/ml)”. Still for that read-out and setting: the same measure for MGQTGPTGAV (also called Deselection 1) [Deselection peptide 1 MGQTGPTGAV]: “no binding (tested: 0-30 ng/ml)”; for LLARDFEKNY [Non-sense selection peptide LLARDFEKNY]: “no binding”.
